Measured values as given in the supplement of paper PMC9112550, “Optimization of the antimicrobial peptide Bac7 by deep mutational scanning” (BMC Biology, 2022).

Tested on: Escherichia coli TOP10
Experiment: shrunken log2 fold change of peptide-encoding DNA abundance (4.5 h post-induction vs induction); higher = less antimicrobial activity (less host growth inhibition)
Settings: time post-induction: 4.5 h; library: site-saturation at positions 5, 18, 19, 20
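Note: peptides expressed intracellularly from a pBAD plasmid library in pooled LB shake-flask culture, induced with 0.3% L-arabinose, DNA abundance read by NGS, three biological replicates, DESeq2 with apeglm shrinkage.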

Sequence	shrunken log2 fold change
RRIRNRPPRLPRPRPRPSVWPRP	0.228
RRIRCRPPRLPRPRPRPKASPRP	-0.00163
RRIRKRPPRLPRPRPRPRPTPRP	1.04
RRIRFRPPRLPRPRPRPNSCPRP	-0.895
RRIRDRPPRLPRPRPRPKKDPRP	0.199
RRIRFRPPRLPRPRPRPASQPRP	-0.0114
RRIRGRPPRLPRPRPRPGLGPRP	1.67
RRIRHRPPRLPRPRPRPFNRPRP	0.00911
RRIRCRPPRLPRPRPRPMSKPRP	-0.5
RRIRIRPPRLPRPRPRPMAHPRP	-0.0137
RRIRFRPPRLPRPRPRPRIYPRP	-0.326
RRIRKRPPRLPRPRPRPCCQPRP	-0.102
RRIRTRPPRLPRPRPRPFLIPRP	-0.378
RRIRIRPPRLPRPRPRPKPGPRP	0.53
RRIRYRPPRLPRPRPRPMADPRP	-0.0453
RRIRNRPPRLPRPRPRPNKCPRP	-0.466
RRIRARPPRLPRPRPRPVMQPRP	0.305
RRIRGRPPRLPRPRPRPWNIPRP	-0.409
RRIRRRPPRLPRPRPRPDTGPRP	0.0107
RRIRCRPPRLPRPRPRPYDNPRP	-0.498
RRIRYRPPRLPRPRPRPIYYPRP	-0.461
RRIRLRPPRLPRPRPRPSEHPRP	-0.453
RRIRQRPPRLPRPRPRPPLQPRP	0.218
RRIRFRPPRLPRPRPRPIFLPRP	-0.196
RRIRWRPPRLPRPRPRPNEWPRP	-0.0242

Sequence	shrunken log2 fold change
RRIRLRPPRLPRPRPRPNSQPRP	-0.32
RRIRDRPPRLPRPRPRPEFFPRP	0.896
RRIRYRPPRLPRPRPRPEQGPRP	-0.00197
RRIRQRPPRLPRPRPRPGRRPRP	0.388
RRIRSRPPRLPRPRPRPYKPPRP	-0.195
RRIRHRPPRLPRPRPRPVYNPRP	-0.303
RRIRKRPPRLPRPRPRPLPTPRP	0.491
RRIRKRPPRLPRPRPRPPQHPRP	0.5
RRIRTRPPRLPRPRPRPFKVPRP	0.0475
RRIRQRPPRLPRPRPRPRTGPRP	0.443
RRIRYRPPRLPRPRPRPMRNPRP	0.174
RRIRVRPPRLPRPRPRPAQMPRP	0.126
RRIRVRPPRLPRPRPRPCPMPRP	-0.0643
RRIRPRPPRLPRPRPRPNAEPRP	0.154
RRIRTRPPRLPRPRPRPVVRPRP	-0.00389
RRIRSRPPRLPRPRPRPWLPPRP	0.0131
RRIRQRPPRLPRPRPRPWGIPRP	0.0274
RRIRKRPPRLPRPRPRPFYEPRP	0.0368
RRIRWRPPRLPRPRPRPYRSPRP	0.0201
RRIRFRPPRLPRPRPRPSHEPRP	0.204
RRIRLRPPRLPRPRPRPIPNPRP	-0.135
RRIRLRPPRLPRPRPRPYTVPRP	-0.121
RRIRTRPPRLPRPRPRPVKRPRP	0.0411
RRIRNRPPRLPRPRPRPRKPPRP	-0.0565
RRIRPRPPRLPRPRPRPFAFPRP	0.00781

Sequence	shrunken log2 fold change
RRIRSRPPRLPRPRPRPRECPRP	0.71
RRIRCRPPRLPRPRPRPNYGPRP	-0.297
RRIRTRPPRLPRPRPRPMEVPRP	0.117
RRIRARPPRLPRPRPRPNPVPRP	0.0917
RRIRWRPPRLPRPRPRPGICPRP	0.146
RRIRTRPPRLPRPRPRPGQFPRP	-0.182
RRIRWRPPRLPRPRPRPRNNPRP	-0.162
RRIRNRPPRLPRPRPRPQQTPRP	-0.0918
RRIRMRPPRLPRPRPRPDNNPRP	0.274
RRIRGRPPRLPRPRPRPDYDPRP	0.157
RRIRWRPPRLPRPRPRPRNLPRP	0.0777
RRIRIRPPRLPRPRPRPLKSPRP	-0.325
RRIRERPPRLPRPRPRPHKIPRP	-0.13
RRIRMRPPRLPRPRPRPTLWPRP	0.968
RRIRCRPPRLPRPRPRPKNVPRP	-0.258
RRIRHRPPRLPRPRPRPKIKPRP	-0.601
RRIRERPPRLPRPRPRPSSGPRP	-0.648
RRIRCRPPRLPRPRPRPKFHPRP	-0.498
RRIRDRPPRLPRPRPRPEKKPRP	-0.0317
RRIRARPPRLPRPRPRPECIPRP	0.781
RRIRARPPRLPRPRPRPPVWPRP	0.685
RRIRVRPPRLPRPRPRPASHPRP	0.0857
RRIRERPPRLPRPRPRPDAIPRP	-0.166
RRIRPRPPRLPRPRPRPVMMPRP	3.4
RRIRTRPPRLPRPRPRPKSGPRP	0.0903

Sequence	shrunken log2 fold change
RRIRVRPPRLPRPRPRPHDWPRP	0.00123
RRIRFRPPRLPRPRPRPHRMPRP	-0.15
RRIRWRPPRLPRPRPRPMCAPRP	0.713
RRIRVRPPRLPRPRPRPDPMPRP	-0.0769
RRIRPRPPRLPRPRPRPKKLPRP	-0.0688
RRIRWRPPRLPRPRPRPTLVPRP	-0.212
RRIRDRPPRLPRPRPRPGMCPRP	0.432
RRIRRRPPRLPRPRPRPETYPRP	0.0872
RRIRQRPPRLPRPRPRPKIHPRP	-0.558
RRIRYRPPRLPRPRPRPVIDPRP	-0.942
RRIRMRPPRLPRPRPRPACFPRP	0.421
RRIRMRPPRLPRPRPRPADAPRP	1.21
RRIRHRPPRLPRPRPRPAVYPRP	-0.0534
RRIRPRPPRLPRPRPRPYYCPRP	-0.718
RRIRRRPPRLPRPRPRPHFPPRP	0.553
RRIRTRPPRLPRPRPRPSSRPRP	0.543
RRIRARPPRLPRPRPRPQPCPRP	0.276
RRIRARPPRLPRPRPRPAQFPRP	0.509
RRIRWRPPRLPRPRPRPAQWPRP	0.287
RRIRNRPPRLPRPRPRPAAHPRP	-0.00675
RRIRWRPPRLPRPRPRPAAGPRP	0.545
RRIRHRPPRLPRPRPRPQWSPRP	-0.0854
RRIRRRPPRLPRPRPRPDTDPRP	-0.108
RRIRWRPPRLPRPRPRPEKQPRP	0.0441
RRIRPRPPRLPRPRPRPERLPRP	0.0284

Sequence	shrunken log2 fold change
RRIRKRPPRLPRPRPRPYHYPRP	0.00414
RRIRLRPPRLPRPRPRPMLTPRP	0.0606
RRIRGRPPRLPRPRPRPHPQPRP	0.546
RRIRLRPPRLPRPRPRPPNTPRP	0.00316
RRIRDRPPRLPRPRPRPTIYPRP	0.0468
RRIRYRPPRLPRPRPRPGRIPRP	0.0959
RRIRHRPPRLPRPRPRPARWPRP	0.386
RRIRMRPPRLPRPRPRPNFYPRP	-0.00797
RRIRLRPPRLPRPRPRPFKPPRP	0.2
RRIRCRPPRLPRPRPRPAVEPRP	-0.0939
RRIRSRPPRLPRPRPRPKKMPRP	-0.178
RRIRARPPRLPRPRPRPDSEPRP	0.481
RRIRIRPPRLPRPRPRPPRQPRP	0.337
RRIRERPPRLPRPRPRPADMPRP	-0.0494
RRIRARPPRLPRPRPRPPPPPRP	1.46
RRIRARPPRLPRPRPRPYESPRP	-0.103
RRIRVRPPRLPRPRPRPAYIPRP	-0.738
RRIRVRPPRLPRPRPRPNLWPRP	-0.0401
RRIRIRPPRLPRPRPRPCWEPRP	-0.0815
RRIRQRPPRLPRPRPRPNGNPRP	-0.405
RRIRYRPPRLPRPRPRPRSHPRP	-0.267
RRIRSRPPRLPRPRPRPSCKPRP	-0.797
RRIRMRPPRLPRPRPRPLKSPRP	0.11
RRIRCRPPRLPRPRPRPRNDPRP	-0.191
RRIRMRPPRLPRPRPRPIWVPRP	-0.0406

Sequence	shrunken log2 fold change
RRIRNRPPRLPRPRPRPCQIPRP	-0.0177
RRIRMRPPRLPRPRPRPFMLPRP	-0.213
RRIRPRPPRLPRPRPRPVVNPRP	-0.229
RRIRDRPPRLPRPRPRPKHNPRP	-0.0986
RRIRRRPPRLPRPRPRPTVLPRP	-0.227
RRIRDRPPRLPRPRPRPICQPRP	0.0244
RRIRNRPPRLPRPRPRPKYWPRP	-0.387
RRIRHRPPRLPRPRPRPHERPRP	-0.00134
RRIRARPPRLPRPRPRPDGRPRP	0.197
RRIRCRPPRLPRPRPRPQDWPRP	-0.0628
RRIRARPPRLPRPRPRPYNLPRP	-0.00894
RRIRVRPPRLPRPRPRPEWNPRP	-0.272
RRIRHRPPRLPRPRPRPEICPRP	-0.00961
RRIRSRPPRLPRPRPRPCERPRP	-0.0685
RRIRMRPPRLPRPRPRPHVNPRP	-0.132
RRIRARPPRLPRPRPRPRITPRP	0.173
RRIRERPPRLPRPRPRPSSWPRP	-0.0518
RRIRGRPPRLPRPRPRPTKMPRP	0.521
RRIRVRPPRLPRPRPRPIQRPRP	-0.0384
RRIRNRPPRLPRPRPRPAPLPRP	0.196
RRIRFRPPRLPRPRPRPWGKPRP	-0.221
RRIRVRPPRLPRPRPRPSPTPRP	0.0219
RRIRFRPPRLPRPRPRPVCSPRP	-0.279
RRIRMRPPRLPRPRPRPSRDPRP	0.257
RRIRKRPPRLPRPRPRPPAYPRP	0.417
